{"source": "paper PMC2879517", "about": "(Nucleic Acids Research, 2010)", "proteins": {"B1": {"name": "DdrB from D. geothermalis labeled with SeMet (natural protein)", "chain": "MLHIEFITDLGAKVTVDVESADKLLDVQRQYGRLGWTSGEVPVGGYQFPLENEPDFDWSLIGARKWTNPEGEEMILHRGHAYRRRELEAVDSRKMKLPAAVKYSRGAKNTDPEHVREKADGEFEYVTLAIFRGGKRQERYAVPGSNRPQAGAPARSAATRAQGARPGAVAVQDEETPF", "modifications": "selenomethionine (SeMet) in place of methionine"}, "B2": {"name": "DdrB (DNA damage response B) from D. geothermalis, native, untagged (natural protein)", "chain": "B1 chain"}}, "key": {"crystal structure": {"target": "the molecule itself", "test": "crystal structure"}, "SEC": {"target": "the molecule itself", "test": "SEC"}}}
{"protein": "B1", "values": [{"measurement": "stoichiometry N", "setting": "crystal structure", "value": 5}]}
{"protein": "B2", "values": [{"measurement": "stoichiometry N", "setting": "SEC", "value": 5}]}
